From patent US20160145343A1

Tests used:
[1] = target: Normal MUC1 on non-transformed MCF-10A cells and on normal tissue (human) (UniProt P15941); assay: immunohistochemistry, colon tissue microarray
[2] = target: Normal MUC1 on non-transformed MCF-10A cells and on normal tissue (human) (UniProt P15941); assay: immunohistochemistry, colon tissue microarray, normal samples
[3] = target: Normal MUC1 on non-transformed MCF-10A cells and on normal tissue (human) (UniProt P15941); assay: flow cytometry, MCF10a cells, secondary antibody only
[4] = target: Normal MUC1 on non-transformed MCF-10A cells and on normal tissue (human) (UniProt P15941); assay: flow cytometry, MCF10a cells
BSA = BSA (UniProt P02769); assay: ELISA on coated BSA, antibody 0.01 mg/ml, mean of 3
Synthetic peptide (…)2 = assay: ELISA on coated peptide, antibody 0.01 mg/ml, mean of 3
[5] = target: Synthetic peptide …; assay: as above
[6] = target: SEQ ID NO: 346 glycopeptide with TF-antigen at Ser5; assay: ELISA on coated glycopeptide, antibody 0.01 mg/ml, mean of 3
[7] = target: SEQ ID NO: 346 glycopeptide with TF-antigen at Thr16; assay: as above
[8] = target: SEQ ID NO: 346 glycopeptide with TF-antigen at Thr4 and Thr9; assay: as above
[9] = target: SEQ ID NO: 346 glycopeptide with TF-antigen at Thr4; assay: as above
[10] = target: SEQ ID NO: 346 glycopeptide with TF-antigen at Thr9; assay: as above
[11] = target: SEQ ID NO: 346 glycopeptide with Tn-antigen at Thr4, Thr9 and Thr16; assay: as above

Sequence of Synthetic peptide (…)2 (peptide, as listed by the source): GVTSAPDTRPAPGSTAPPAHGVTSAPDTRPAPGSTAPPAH
Sequence of BSA (P02769 25-607 limits assumed): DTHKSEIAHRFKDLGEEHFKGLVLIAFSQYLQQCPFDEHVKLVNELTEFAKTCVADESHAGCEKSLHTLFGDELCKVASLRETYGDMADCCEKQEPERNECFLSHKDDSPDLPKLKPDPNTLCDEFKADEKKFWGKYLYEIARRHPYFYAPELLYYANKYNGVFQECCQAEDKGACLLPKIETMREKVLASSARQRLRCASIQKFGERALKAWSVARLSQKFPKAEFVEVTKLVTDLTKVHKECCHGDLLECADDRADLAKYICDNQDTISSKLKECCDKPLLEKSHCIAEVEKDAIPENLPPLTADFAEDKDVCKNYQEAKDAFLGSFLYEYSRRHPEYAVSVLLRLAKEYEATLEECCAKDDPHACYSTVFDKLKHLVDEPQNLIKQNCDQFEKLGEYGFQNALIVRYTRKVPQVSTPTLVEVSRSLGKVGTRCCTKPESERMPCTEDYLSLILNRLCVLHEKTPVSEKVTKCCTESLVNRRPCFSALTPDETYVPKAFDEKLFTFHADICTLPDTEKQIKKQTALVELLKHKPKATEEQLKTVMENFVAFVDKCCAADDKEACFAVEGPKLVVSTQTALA

Substance	samples MUC1+ by staining (of 6 normal samples) [1]	MUC1+ samples stained (of 3 MUC1+ normal samples) [2]	percentage of APC+ stained cells [3]	percentage of APC+ stained cells [4]	ELISA absorbance at 450 nm (BSA)	ELISA absorbance at 450 nm (Synthetic peptide (…)2)	ELISA absorbance at 450 nm [5]	ELISA absorbance at 450 nm [6]	ELISA absorbance at 450 nm [7]	ELISA absorbance at 450 nm [8]	ELISA absorbance at 450 nm [9]	ELISA absorbance at 450 nm [10]	ELISA absorbance at 450 nm [11]
HMPV (BD Biosciences), mouse anti-MUC1 antibody	3	3	–	–	–	–	–	–	–	–	–	–	–
Hu-2nd. (APC-labeled secondary antibody only control for the human antibodies)	–	–	0.25%	–	–	–	–	–	–	–	–	–	–
M-2nd. (APC-labeled secondary antibody only control for the mouse antibodies)	–	–	0.6%	–	–	–	–	–	–	–	–	–	–
VU-3C6 (Abcam), mouse anti-MUC1 antibody	–	–	–	99.2%	0.2 absorbance	2.3 absorbance	1.5 absorbance	2 absorbance	1.5 absorbance	2.4 absorbance	2 absorbance	2.4 absorbance	2.4 absorbance
VU-4H5 (Abnova), mouse anti-MUC1 antibody	–	–	–	3.85%	0.1 absorbance	2.5 absorbance	1.9 absorbance	1.8 absorbance	1.9 absorbance	0.1 absorbance	1.8 absorbance	0.1 absorbance	0.1 absorbance
